The results in this text go back to paper doi:10.1101/2022.09.08.506998.

The target of this experiment is full-length KIT(T417I,Δ418-419) (kinase-inactive K623A) (human). Briefly: cryo-EM structure.

As a reminder, the stoichiometry N is the number of molecules, sites or subunits per partner or assembly. With “full-length KIT(T417I,Δ418-419) (kinase-inactive K623A) (receptor)”, the stoichiometry N was 2.
